Source: article PMC8563757, “NudCL2 is an autophagy receptor that mediates selective autophagic degradation of CP110 at mother centrioles to promote ciliogenesis” (Cell Research, 2021)

Molecular target: T1, His-CP110 (mouse, UniProt Q7TSH4 1-1004)
T1 construct: Full-length mouse CP110 cloned by RT-PCR into pFastBac-HT A (His-tag vector); also called purified His-CP110; source: insect Sf9 cells, Bac-to-Bac baculovirus expression system, purified
T1 sequence (looked up): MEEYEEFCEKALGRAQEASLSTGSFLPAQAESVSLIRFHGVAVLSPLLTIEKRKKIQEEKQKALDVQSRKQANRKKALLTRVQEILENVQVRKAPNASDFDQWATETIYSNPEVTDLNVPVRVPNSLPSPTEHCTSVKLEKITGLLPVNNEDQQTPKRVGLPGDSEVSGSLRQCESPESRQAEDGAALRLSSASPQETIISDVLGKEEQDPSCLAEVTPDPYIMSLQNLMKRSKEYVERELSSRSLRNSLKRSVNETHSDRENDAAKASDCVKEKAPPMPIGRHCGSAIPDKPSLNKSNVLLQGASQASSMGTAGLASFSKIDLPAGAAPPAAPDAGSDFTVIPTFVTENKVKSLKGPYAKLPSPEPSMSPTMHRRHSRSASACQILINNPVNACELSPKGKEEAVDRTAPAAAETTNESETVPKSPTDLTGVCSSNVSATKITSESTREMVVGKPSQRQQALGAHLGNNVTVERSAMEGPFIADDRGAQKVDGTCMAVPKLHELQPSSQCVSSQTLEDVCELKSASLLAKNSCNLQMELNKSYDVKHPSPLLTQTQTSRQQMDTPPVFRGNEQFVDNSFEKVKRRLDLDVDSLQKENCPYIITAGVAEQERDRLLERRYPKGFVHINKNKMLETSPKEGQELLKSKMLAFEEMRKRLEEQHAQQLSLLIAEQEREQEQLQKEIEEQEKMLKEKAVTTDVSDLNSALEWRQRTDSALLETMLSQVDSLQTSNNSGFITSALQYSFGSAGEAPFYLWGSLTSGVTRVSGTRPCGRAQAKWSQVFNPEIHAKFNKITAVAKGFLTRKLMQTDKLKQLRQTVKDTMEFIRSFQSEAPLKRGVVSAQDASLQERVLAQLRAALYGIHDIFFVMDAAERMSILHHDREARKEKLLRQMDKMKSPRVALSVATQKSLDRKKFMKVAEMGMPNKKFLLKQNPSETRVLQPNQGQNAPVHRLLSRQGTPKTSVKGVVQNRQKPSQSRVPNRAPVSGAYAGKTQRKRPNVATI
Experiment: pull-down; GST pull-down of two purified proteins, incubated in PBS at 4 °C for 4 h, glutathione-agarose beads 2 h, western blotting
Details: both partners purified

- binding result: binds
B1: GST-NudCL2 (natural protein, mouse, UniProt Q9CQ48 1-157, looked up)
chain: MSAPFEERSGVVPCGTPWGQWYQTLEEVFIEVQVPPGTRAQDIQCGLQSRHVALAVGGREILKGKLFDSTIADEGTWTLEDRKMVRIVLTKTKRDAANCWTSLLESEYAADPWVQDQMQRKLTLERFQKENPGFDFSGAEISGNYTKGGPDFSNLEK
notes: Full-length mouse NudCL2 amplified from total cDNA by RT-PCR and cloned into pGEX5X-1; also called purified GST-NudCL2; source: Escherichia coli BL21, purified
